In publication PMC11046700 (Proceedings of the National Academy of Sciences of the …, 2024):

Target: the molecule itself
Experiment: SEC

B1: mouse WT-APOA5 (mouse apolipoprotein AV with an N-terminal mouse albumin tag) (natural protein, UniProt Q8C7G5 21-368, looked up)
chain: RKSLWDYFSQNSWSKGVMGQPQKLAQENLKGSFEQDLYNMNNYLEKLGPLRGPGKEPPLLAQDPEGIRKQLQQELGEVSSRLEPYMAAKHQQVGWNLEGLRQQLKPYTAELMEQVGLSVQELQEQLRVVGEDTKAQLLGGVDEALNLLQDMQSRVLHHTDRVKELFHPYAERLVTGIGHHVQELHRSVAPHAAASPARLSRCVQTLSHKLTRKAKDLHTSIQRNLDQLRDELSAFIRVSTDGAEDGDSLDPQALSEEVRQRLQAFRHDTYLQIAAFTQAIDQETEEIQHQLAPPPPSHSAFAPELGHSDSNKALSRLQSRLDDLWEDIAYGLQDQGHSHLSDPEGHSG
- stoichiometry N: 2
